In this assay the target is gasp1_human GPRASP1 (UniProt Q5JY77).

One substance from IntAct's records for PubMed 15086532 can be followed below.

Sequence of gasp1_human GPRASP1 (Q5JY77 whole entry): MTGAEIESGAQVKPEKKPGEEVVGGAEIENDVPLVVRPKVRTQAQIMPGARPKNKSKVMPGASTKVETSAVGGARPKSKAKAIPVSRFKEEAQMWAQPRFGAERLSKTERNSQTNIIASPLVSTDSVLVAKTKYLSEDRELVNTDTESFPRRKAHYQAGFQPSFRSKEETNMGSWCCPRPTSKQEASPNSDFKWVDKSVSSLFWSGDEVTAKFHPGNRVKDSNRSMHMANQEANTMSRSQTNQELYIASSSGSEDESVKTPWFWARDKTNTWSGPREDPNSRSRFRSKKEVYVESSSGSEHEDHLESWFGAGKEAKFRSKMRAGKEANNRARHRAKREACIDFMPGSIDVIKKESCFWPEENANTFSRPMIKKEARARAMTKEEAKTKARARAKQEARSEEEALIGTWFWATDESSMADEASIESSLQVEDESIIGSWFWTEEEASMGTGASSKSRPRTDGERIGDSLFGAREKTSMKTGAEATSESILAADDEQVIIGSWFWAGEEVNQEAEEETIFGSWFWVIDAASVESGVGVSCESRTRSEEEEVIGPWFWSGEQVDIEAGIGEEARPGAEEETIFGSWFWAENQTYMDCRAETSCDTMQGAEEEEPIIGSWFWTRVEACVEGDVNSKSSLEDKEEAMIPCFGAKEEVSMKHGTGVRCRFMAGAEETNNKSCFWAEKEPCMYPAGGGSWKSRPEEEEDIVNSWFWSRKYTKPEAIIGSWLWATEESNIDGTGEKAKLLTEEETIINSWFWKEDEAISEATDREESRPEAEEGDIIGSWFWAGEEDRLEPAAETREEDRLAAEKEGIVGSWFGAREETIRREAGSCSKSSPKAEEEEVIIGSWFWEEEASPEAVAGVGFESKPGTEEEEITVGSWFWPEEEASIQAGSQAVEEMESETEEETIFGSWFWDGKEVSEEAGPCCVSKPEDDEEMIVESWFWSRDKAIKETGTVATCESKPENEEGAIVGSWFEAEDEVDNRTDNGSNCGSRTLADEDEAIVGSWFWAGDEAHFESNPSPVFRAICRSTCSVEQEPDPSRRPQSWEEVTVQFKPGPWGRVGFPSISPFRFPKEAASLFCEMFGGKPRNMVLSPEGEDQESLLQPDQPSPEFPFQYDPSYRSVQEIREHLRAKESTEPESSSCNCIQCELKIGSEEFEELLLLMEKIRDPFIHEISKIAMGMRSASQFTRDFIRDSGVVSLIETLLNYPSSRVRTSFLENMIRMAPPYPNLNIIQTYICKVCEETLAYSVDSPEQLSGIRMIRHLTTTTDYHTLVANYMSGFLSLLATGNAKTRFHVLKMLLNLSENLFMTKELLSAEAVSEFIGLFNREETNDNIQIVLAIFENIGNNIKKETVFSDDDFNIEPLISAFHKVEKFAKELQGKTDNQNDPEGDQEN
Sequence of Beta-1 adrenergic receptor (Homo sapiens), P08588 F383A;R384A (P08588 whole entry F383A/R384A): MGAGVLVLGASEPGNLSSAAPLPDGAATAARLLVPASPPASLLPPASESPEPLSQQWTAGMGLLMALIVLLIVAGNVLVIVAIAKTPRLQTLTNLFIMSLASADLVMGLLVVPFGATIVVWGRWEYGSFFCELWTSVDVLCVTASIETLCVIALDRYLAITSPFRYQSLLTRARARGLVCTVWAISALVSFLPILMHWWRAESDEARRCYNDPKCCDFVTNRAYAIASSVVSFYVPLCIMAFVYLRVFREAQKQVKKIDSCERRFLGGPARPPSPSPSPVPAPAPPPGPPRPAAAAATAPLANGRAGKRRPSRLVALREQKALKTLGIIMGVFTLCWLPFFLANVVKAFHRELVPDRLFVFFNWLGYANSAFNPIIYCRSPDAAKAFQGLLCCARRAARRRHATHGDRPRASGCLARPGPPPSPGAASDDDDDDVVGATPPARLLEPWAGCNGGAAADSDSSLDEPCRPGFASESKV

On to “Beta-1 adrenergic receptor (Homo sapiens), P08588 F383A;R384A”, for which the “effect of a mutation on the interaction” value is on record as “decreasing interaction”.
